The values below come from paper PMC9462884, “Tensin3 interaction with talin drives the formation of fibronectin-associated fibrillar adhesions” (The Journal of Cell Biology, 2022).

The Kd is the equilibrium constant for the complex coming apart.

The target of the assay is T1, talin R11 (recombinant wild-type mouse talin1 fragment R11) (mouse, UniProt P26039 1974-2140).
T1 construct: talin1, mouse, R11 rod domain, residues 1,974–2,140; 15N-labelled for the NMR experiments; also called talin R11 domain
T1 sequence (P26039 1974-2140): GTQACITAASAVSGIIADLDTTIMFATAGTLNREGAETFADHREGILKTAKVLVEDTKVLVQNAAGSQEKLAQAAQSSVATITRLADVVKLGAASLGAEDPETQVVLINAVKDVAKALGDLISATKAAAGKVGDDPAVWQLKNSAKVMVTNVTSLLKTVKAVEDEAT
Description: ITC; 80 µM R11 in the cell, 1.2 mM peptide in the syringe; 20 mM sodium phosphate pH 6.5, 50 mM NaCl, 0.5 mM TCEP, 25°C; single-site binding model. Conditions: both partners purified. A general note: ITC needs no label: the signal is the heat of the interaction.

B1: tensin3 H1 peptide (peptide)
chain: TLDIDQSIEQLNRLILELDPT
modifications: synthetic peptide; terminal capping not stated. Limits conflict in the text: methods give 692-712 (used here, from the peptide purchase description and close to the predicted helix 690-710), results …
As to B1, the Kd worked out at 17 µM and the dH amounted to 4.8 kcal/mol.
